Patent US20140221611A1
Positions of bridges follow the written chain, without caps; N, C: chain ends. No end group written: not given here. *: point of attachment. NHNH2 = NN*

molecular target: REFACTO® factor VIII-like polypeptide (amino acids 1-743 and 1638 through 2332 of human factor VIII) (human) (UniProt P00451); experiment: affinity column of immobilised peptide; fractions by factor VIII activity assay
Sequence (P00451 20-762, chain 1 of 2): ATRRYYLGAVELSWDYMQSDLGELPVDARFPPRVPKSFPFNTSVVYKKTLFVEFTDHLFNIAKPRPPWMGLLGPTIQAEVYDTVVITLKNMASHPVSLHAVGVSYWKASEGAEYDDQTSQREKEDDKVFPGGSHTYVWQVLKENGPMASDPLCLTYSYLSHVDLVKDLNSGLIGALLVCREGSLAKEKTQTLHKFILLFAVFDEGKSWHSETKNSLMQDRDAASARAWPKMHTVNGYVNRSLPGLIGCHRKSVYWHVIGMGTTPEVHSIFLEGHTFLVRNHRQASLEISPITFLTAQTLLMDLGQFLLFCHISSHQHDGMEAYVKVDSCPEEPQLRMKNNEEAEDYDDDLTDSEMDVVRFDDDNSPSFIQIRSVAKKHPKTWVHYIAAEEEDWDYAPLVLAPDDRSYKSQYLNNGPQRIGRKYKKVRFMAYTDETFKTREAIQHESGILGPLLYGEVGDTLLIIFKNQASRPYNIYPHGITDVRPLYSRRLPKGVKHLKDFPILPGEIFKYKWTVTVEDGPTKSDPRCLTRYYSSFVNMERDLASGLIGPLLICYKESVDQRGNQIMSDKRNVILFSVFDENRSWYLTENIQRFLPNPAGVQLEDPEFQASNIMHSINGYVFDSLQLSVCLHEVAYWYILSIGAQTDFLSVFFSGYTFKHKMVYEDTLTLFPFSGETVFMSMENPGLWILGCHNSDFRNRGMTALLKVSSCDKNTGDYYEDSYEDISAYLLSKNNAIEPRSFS
Sequence (P00451 1657-2351, chain 2 of 2): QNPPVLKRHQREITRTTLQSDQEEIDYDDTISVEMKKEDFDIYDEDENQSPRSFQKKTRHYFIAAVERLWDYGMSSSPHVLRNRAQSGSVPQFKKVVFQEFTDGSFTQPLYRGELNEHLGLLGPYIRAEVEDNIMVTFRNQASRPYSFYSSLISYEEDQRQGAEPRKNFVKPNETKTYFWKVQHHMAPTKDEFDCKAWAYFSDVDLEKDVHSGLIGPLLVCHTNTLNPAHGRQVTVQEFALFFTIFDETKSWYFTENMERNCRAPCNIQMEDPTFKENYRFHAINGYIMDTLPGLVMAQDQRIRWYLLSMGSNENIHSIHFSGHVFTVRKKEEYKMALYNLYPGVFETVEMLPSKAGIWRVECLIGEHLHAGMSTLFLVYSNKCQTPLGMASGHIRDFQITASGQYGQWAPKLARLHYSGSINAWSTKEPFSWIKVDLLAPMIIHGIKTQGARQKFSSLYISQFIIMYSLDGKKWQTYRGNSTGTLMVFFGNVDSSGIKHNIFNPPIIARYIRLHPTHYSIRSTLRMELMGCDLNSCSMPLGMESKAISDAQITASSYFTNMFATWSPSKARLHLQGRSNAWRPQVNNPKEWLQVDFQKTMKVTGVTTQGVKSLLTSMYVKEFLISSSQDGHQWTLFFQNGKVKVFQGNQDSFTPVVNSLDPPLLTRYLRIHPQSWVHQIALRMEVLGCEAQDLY

Binder | % recovery in Elution A [%] | % recovery in Flow [%]
AEGTGDHPCGSWLRPCLHDPGPEGGGS-NHNH2 (disulfide 9-16 (inferred)) [Affinity ligand CS-453] | 26.4 | 0
AEGTGDFCWVFPFQHCADPGPEGGGS-NHNH2 (disulfide 8-16 (inferred)) [Affinity ligand CS-459] | 31.2 | 6.4
AEGTGDFGCSWLFPCPFDPGPEGGGS-NHNH2 (disulfide 9-15 (inferred)) [Affinity ligand CS-456] | 43 | 4.8
AEGTGDFCWVFAFDHCHDPGPEGGGS-NHNH2 (disulfide 8-16 (inferred)) [Affinity ligand CS-458] | 55.6 | 1.4
AEGTGDFCWVFPFHHCFDPGPEGGGS-NHNH2 (disulfide 8-16 (inferred)) [Affinity ligand CS-460] | 0 | 28.4
AEGTGDFHCIGVWFCLHDPGPEGGGS-NHNH2 (disulfide 9-15 (inferred)) [Affinity ligand CS-455] | 1.3 | 61.6
AEGTGDHLCGAWFRPCDADPGPEGGGS-NHNH2 (disulfide 9-16 (inferred)) [Affinity ligand CS-454] | 42.4 | 2.2

molecular target: REFACTO® factor VIII-like polypeptide (amino acids 1-743 and 1638 through 2332 of human factor VIII) (human) (UniProt P00451); experiment: phage ELISA, anti-M13-HRP

Binder | ELISA signal [OD630]
FCWVFPFQHCA [TN9 isolate 09 (phage-displayed peptide, SEQ ID NO: 29)] | 1.1
FCWVFPFHHCF [TN9 isolate 06 (phage-displayed peptide, SEQ ID NO: 30)] | 0.3
FCHVFNFVHCS [TN9 isolate 01 (phage-displayed peptide, SEQ ID NO: 31)] | 0.5
HSCGSWLFPCFA [TN7 isolate A06 (phage-displayed peptide, SEQ ID NO: 4)] | 0.5
RLCSWISPCSA [TN7 isolate D04 (phage-displayed peptide, SEQ ID NO: 7)] | 0.3
FCWVFPFNHCD [TN9 isolate 02 (phage-displayed peptide, SEQ ID NO: 27)] | 0.4
FCHVFHFSHCD [TN9 isolate 01 (phage-displayed peptide, SEQ ID NO: 24)] | 0.2
FCHVFPFLHCD [TN9 isolate 11 (phage-displayed peptide, SEQ ID NO: 32)] | 0.2
HRCGSWLHPCLA [TN8 isolate 11/G10 (phage-displayed peptide, SEQ ID NO: 21)] | 0.3
FCWVFPFNHCS [TN9 isolate 12 (phage-displayed peptide, SEQ ID NO: 28)] | 1
RLCSWVSPCSA [TN7 isolate C5/G10 (phage-displayed peptide, SEQ ID NO: 9)] | 0.5
HPCGSWLHPCAA [TN8 isolate 04 (phage-displayed peptide, SEQ ID NO: 12)] | 0.3
FGCSWLFPCPF [TN7 isolate A08 (phage-displayed peptide, SEQ ID NO: 5)] | 0.4
HPCGAWFNPCPR [TN8 isolate 01 (phage-displayed peptide, SEQ ID NO: 19)] | 0.2
HPCGSWFRPCFH [TN8 isolate 02 (phage-displayed peptide, SEQ ID NO: 14)] | 0.7
PHCNWLFPCSL [TN7 isolate D03 (phage-displayed peptide, SEQ ID NO: 6)] | 0.2
HPCGSWFNPCAH [TN8 isolate 02 (phage-displayed peptide, SEQ ID NO: 13)] | 0.3
FCWVFNFSHCS [TN9 isolate 03 (phage-displayed peptide, SEQ ID NO: 26)] | 1.1
HPCGSWLRPCLH [TN8 isolate 10 (phage-displayed peptide, SEQ ID NO: 10)] | 1
HLCGAWFRPCDA [TN8 isolate 02 (phage-displayed peptide, SEQ ID NO: 16)] | 0.4
HACGSWFRPCHA [TN8 isolate 07 (phage-displayed peptide, SEQ ID NO: 15)] | 0.4
FHCIGVWFCLH [TN7 isolate A09 (phage-displayed peptide, SEQ ID NO: 8)] | 0.1
HPCGAWLRPCYN [TN8 isolate 08 (phage-displayed peptide, SEQ ID NO: 20)] | 1
RGCGSWLRPCLD [TN8 isolate 05 (phage-displayed peptide, SEQ ID NO: 11)] | 0.2
HLCFAWFRPCDA [TN8 isolate 12 (phage-displayed peptide, SEQ ID NO: 17)] | 0.4
HGCGAWFRPCHA [TN8 isolate 01 (phage-displayed peptide, SEQ ID NO: 18)] | 0.2
FCWVHPFAHCL [TN9 isolate 02 (phage-displayed peptide, SEQ ID NO: 23)] | 0.2

molecular target: REFACTO® factor VIII-like polypeptide (amino acids 1-743 and 1638 through 2332 of human factor VIII) (human) (UniProt P00451); experiment: phage ELISA

Binder | R (ratio of the ELISA score with target present to the ELISA score without target)
FCWVFAFDHCH [TN9/1 isolate … (SEQ ID NO: 71)] | 24
FCWVFNWVHCD [TN9/1 isolate … (SEQ ID NO: 75)] | 14
FCWVFPFQHCA [TN9 isolate 09 (phage-displayed peptide, SEQ ID NO: 29)] | 24
FCWVFPFHHCF [TN9 isolate 06 (phage-displayed peptide, SEQ ID NO: 30)] | 6
FCHVFNFVHCS [TN9 isolate 01 (phage-displayed peptide, SEQ ID NO: 31)] | 8
HSCGSWLFPCFA [TN7 isolate A06 (phage-displayed peptide, SEQ ID NO: 4)] | 10
RLCSWISPCSA [TN7 isolate D04 (phage-displayed peptide, SEQ ID NO: 7)] | 6
FCWVFPFNHCD [TN9 isolate 02 (phage-displayed peptide, SEQ ID NO: 27)] | 8
HRCGSWLHPCLA [TN8 isolate 11/G10 (phage-displayed peptide, SEQ ID NO: 21)] | 6
FCWVFPFNHCS [TN9 isolate 12 (phage-displayed peptide, SEQ ID NO: 28)] | 18
RLCSWVSPCSA [TN7 isolate C5/G10 (phage-displayed peptide, SEQ ID NO: 9)] | 10
HPCGSWLHPCAA [TN8 isolate 04 (phage-displayed peptide, SEQ ID NO: 12)] | 6
FGCSWLFPCPF [TN7 isolate A08 (phage-displayed peptide, SEQ ID NO: 5)] | 8
HPCGSWFRPCFH [TN8 isolate 02 (phage-displayed peptide, SEQ ID NO: 14)] | 16
HPCGSWFNPCAH [TN8 isolate 02 (phage-displayed peptide, SEQ ID NO: 13)] | 8
FCWVFNFSHCS [TN9 isolate 03 (phage-displayed peptide, SEQ ID NO: 26)] | 24
HPCGSWLRPCLH [TN8 isolate 10 (phage-displayed peptide, SEQ ID NO: 10)] | 16
HLCGAWFRPCDA [TN8 isolate 02 (phage-displayed peptide, SEQ ID NO: 16)] | 6
HACGSWFRPCHA [TN8 isolate 07 (phage-displayed peptide, SEQ ID NO: 15)] | 6
HPCGAWLRPCYN [TN8 isolate 08 (phage-displayed peptide, SEQ ID NO: 20)] | 20
HLCFAWFRPCDA [TN8 isolate 12 (phage-displayed peptide, SEQ ID NO: 17)] | 8
FCWVFQFRHCH [TN9/1 isolate … (SEQ ID NO: 77)] | 8

molecular target: REFACTO® factor VIII-like polypeptide (amino acids 1-743 and 1638 through 2332 of human factor VIII) (human) (UniProt P00451); experiment: affinity column of immobilised peptide; fractions by RP-HPLC

Binder | % recovery in Elution A [%] | % recovery in Elution B [%] | % recovery in Flow [%] | % recovery in pH 2 [%]
AEGTGDHPCGSWLRPCLHDPGPEGGGS-NHNH2 (disulfide 9-16 (inferred)) [Affinity ligand CS-453] | 43.2 | 0 | 0 | 0
AEGTGDFCWVFPFQHCADPGPEGGGS-NHNH2 (disulfide 8-16 (inferred)) [Affinity ligand CS-459] | 42.1 | 0 | 1.6 | 0
AEGTGDFGCSWLFPCPFDPGPEGGGS-NHNH2 (disulfide 9-15 (inferred)) [Affinity ligand CS-456] | 44.8 | 0 | 3.4 | 0
AEGTGDFCWVFAFDHCHDPGPEGGGS-NHNH2 (disulfide 8-16 (inferred)) [Affinity ligand CS-458] | 54.3 | 0 | 1.8 | 0
AEGTGDFCWVFPFHHCFDPGPEGGGS-NHNH2 (disulfide 8-16 (inferred)) [Affinity ligand CS-460] | 28.8 | 0 | 24.6 | 0
AEGTGDFHCIGVWFCLHDPGPEGGGS-NHNH2 (disulfide 9-15 (inferred)) [Affinity ligand CS-455] | 1.4 | 0 | 65.8 | 0
AEGTGDHLCGAWFRPCDADPGPEGGGS-NHNH2 (disulfide 9-16 (inferred)) [Affinity ligand CS-454] | 45.1 | 0 | 2.5 | 0
